Test: soluble on expression in E. coli; label from the status in PepcDB or PDB records

Row | Sequence | soluble on expression in E. coli
1 | MGSDKIHHHHHHMKEHEVVGIDRTPCSTADVVGDIRDTALLAEALEGVEVIIHTAALHAPHVGLVPGDEFEEINIKATEQLALMGVKKGIKHFVFTSTTALYGFASTPAGRAGWVDETVMPRPKTIYHHSKIKAEQLLENISSSFDLPVTVLQMSRCFPEPVNLMAVYRLTRGIDARDVARAHACAVERRLSGFRRYIISGKTPFSKACCERLYRDANDVIREAIPGLAESFAVRGWSMPQSLDRVYDSSLAQHELGWQPKYGYESVLSLLDNESAEVLPMKSQS | not soluble
2 | MGSDKIHHHHHHMKEKLRLYHTNDLHSHFENWPKIVDYIEQKRKEHQSDGEETLVFDIGDHLDRFQFVTEATFGKANVDLLNRLHIDGAAIGNNEGITLPHEELAALYDHAEFPVIVSNLFDKNGNRPSWAVPYHIKSLKNGMSIAFLGVTVPYYPVYDKLGWTVTDALESIKETILEVKGQADIIVLLSHLGILDDQAVAEAVPEIDVILESHTHHLLEDGQVVNGVLLASAEKYGHYVGCVEITVDSVQRSINSKTASVQNMAEWTGESAETKAFLNEKEREAEEKLSDAVAELAQDAEVKWFEESELPLLLAYALKEWCETDISMVNSGVILGPLKAGPVTKLDLHRICPHPINPVAVRLTGEELKETIVHAASEQMEQLRIKGLGFRGEVMGKMVYAGVEVETKRLDDGITHVTRITLNGEDIEKHKQYSVAVLDMFTLGKLFPLIRDAAEKEYFMPEFLRDLLAWKLAQ | not soluble
3 | MGSDKIHHHHHHMKEKVVLAYSGGLDTSVILKWLCEKGFDVIAYVANVGQKDDFVAIKEKALKTGASKVYVEDLRREFVTDYIFTALLGNAMYEGRYLLGTAIARPLIAKRQVEIAEKEGAQYVAHGATGKGNDQVRFELTYAALNPNLKVISPWKDPEFLAKFKGRTDLINYAMEKGIPIKVSKKRPYSEDENLMHISHEAGKLEDPAHIPDEDVFTWTVSPKDAPDEETLLEIHFENGIPVKVVNLKDGTEKTDPLELFEYLNEVGAKNGVGRLDMVENRFIGIKSRGVYETPGATILWIAHRDLEGITMDKEVMHLRDMLAPKFAELIYNGFWFSPEMEFLLAAFRKAQENVTGKVTVSIYKGNVMPVARYSPYSLYNPELSSMDVEGGFDATDSKGFINIHALRLKVHQLVKKGYQR | soluble
4 | MGSDKIHHHHHHMKERILQEIKTRVNRKSWELWFSSFDVKSIEGNKVVFSVGNLFIKEWLEKKYYSVLSKAVKVVLGNDATFEITYEAFEPHSSYSEPLVKKRAVLLTPLNPDYTFENFVVGPGNSFAYHAALEVAKHPGRYNPLFIYGGVGLGKTHLLQSIGNYVVQNEPDLRVMYITSEKFLNDLVDSMKEGKLNEFREKYRKKVDILLIDDVQFLIGKTGVQTELFHTFNELHDSGKQIVICSDREPQKLSEFQDRLVSRFQMGLVAKLEPPDEETRKSIARKMLEIEHGELPEEVLNFVAENVDDNLRRLRGAIIKLLVYKETTGKEVDLKEAILLLKDFIKPNRVKAMDPIDELIEIVAKVTGVPREEILSNSRNVKALTARRIGMYVAKNYLKSSLRTIAEKFNRSHPVVVDSVKKVKDSLLKGNKQLKALIDEVIGEISRRALSG | not soluble
5 | MGSDKIHHHHHHMKETEARAAEALRRLLENIPILHVEGIDAEAVSGDWVPDLIARLVVDGKRHLLICEYKSSGQPRFARSALLELRNYVAQRAPEATPVFIAPYISPVVRKMCEEKGVGYLDLEGNARIAFGGVFIERMVTDKPVVEQRELRSLFRPKSAQVLRAMLRDPGRAWRVTELSEISGVSLGHVSNVRTGLIDREWARASDDGLILSEPDALLDAWRDSYAAPAGERSSFYTPLHGSALEDAARSVLRVEDTRGRAAFASFSAAQWLAPYGRTGTHYFFADEDGLRKLQAALKLAPALKGENVIVTVPKDLGLLADTVEPAPGAICTSPVQTYLDLSIAGERGAEAADHLRQERLSWPR | not soluble
6 | MGSDKIHHHHHHMKEVFDLRGRVALVTGGSRGLGFGIAQGLAEAGCSVVVASRNLEEASEAAQKLTEKYGVETMAFRCDVSNYEEVKKLLEAVKEKFGKLDTVVNAAGINRRHPAEEFPLDEFRQVIEVNLFGTYYVCREAFSLLRESDNPSIINIGSLTVEEVTMPNISAYAASKGGVASLTKALAKEWGRYGIRVNVIAPGWYRTKMTEAVFSDPEKLDYMLKRIPLGRTGVPEDLKGVAVFLASEEAKYVTGQIIFVDGGWTAN | soluble
7 | MGSDKIHHHHHHMKGKHKIVVKNNRLHYEFEIKRNITIIKGDSATGKTTLINMIRQFANLGNASGIEIECDAPCTVLEGNLWQMLLKNLSGNIIFIDEENQFIRQQEFAELVKASDNYFVIITRENLYNLPYSVEEIYGLYSSGKYQNTKQIYQEMYHIYPLNQDLSCKPDKIIVEDTNSGYEYFKAISKEKNIVCESAGGKTKIFAMLEQLKAETESICVIADGAAIGPEMDALYKMSVEKGNIKLYLPESFEWIILSSELLEDKEIKDIIDKPENYIESQEYFSWERFFTKLLVDKTAGTYLKYQKGKLNPTYLHEKNKNIILKNIKNSIDF | not soluble
8 | MGSDKIHHHHHHMKHGGFSAASEAENISKSKLSRRIIDLENKFNVSLIQRTTRHFKVTDLGQEFYEECCKVIAQVECAENVLLKQKSEPQGLVKVSCPPLMMHFQIRKILNQFLKTYPKVEISLELTSRRVDILHDDIDLAIRTNFEPNEDSNLIVRDVIKTDHCLVASPELLQGRTIKHYSELQDFPSISLGTQKQNYIWHLCNIRNGESVDVPYQPRIKSNDLAGVYYAVMDGLGIADLPFLTVESEIRKGTLVHILPDWKSNIGMLQLVYVSRKGQRLVVEKLIETLIDELRRLPESHEGYLPT | not soluble
9 | MGSDKIHHHHHHMKHIEDNAGSERKPLAGAAKSVPAVAADKPYHRKNLREDLLRSALELTVERDGPAFSLRELAMREKVSHTAVYRHFSDKASLFAELSSEGFRQLALYQNRTIEAPDLPPLARLEQMGATYVRFAMENVGFFRVMFDVNLAGEWEEARKGERTAFGNLVGLVRQCQSEGDIIDADPRAIATYLVLSPHGLAHFNNIGHLTHLLQTSMTLDQLATQVFRLTLAPFLTKPYSEQDVRALVNSIF | not soluble
10 | MGSDKIHHHHHHMKIDFHTHIYPDHVAVRTIAAVRQRAGIEAHTDGTLKGLKRSMTAAGIDISVVAAVATRPEQVSSIHCWLGGIRQPGIETMATTHPSNPLKSEQIKSLKRRGFKGFKLHPDYQHFFVDDFRMYPFYEAAAAEGMFILFHAGMDRGLPYPVHATPKRLAAVHEAVPRLCMIAAHLGGEEAYEETVAHLLGKDLYLDTSFVLRKMPRLFLERIFREHPPDKLLFASDSPWTDQREELNFLLQLPFLSVQDQEKICFSNAARLLGREA | not soluble
11 | MGSDKIHHHHHHMKIFLDTANLEEIKKGVEWGIVDGVTTNPTLISKEGAEFKQRVKEICDLVKGPVSAEVVSLDYEGMVREARELAQISEYVVIKIPMTPDGIKAVKTLSAEGIKTNVTLVFSPAQAILAAKAGATYVSPFVGRMDDLSNDGMRMLGEIVEIYNNYGFETEIIAASIRHPMHVVEAALMGVDIVTMPFAVLEKLFKHPMTDLGIERFMEDWKKYLENLKK | soluble
12 | MGSDKIHHHHHHMKIHFVGIGGIGMSAVALHEFSNGNDVYGSNIEETERTAYLRKLGIPIFVPHSADNWYDPDLVIKTPAVRDDNPEIVRARMERVPIENRLHYFRDTLKREKKEEFAVTGTDGKTTTTAMVAHVLKHLRKSPTVFLGGIMDSLEHGNYEKGNGPVVYELDESEEFFSEFSPNYLIITNARGDHLENYGNSLTRYRSAFEKISRNTDLVVTFAEDELTSHLGDVTFGVKKGTYTLEMRSASRAEQKAMVEKNGKRYLELKLKVPGFHNVLNALAVIALFDSLGYDLAPVLEALEEFRGVHRRFSIAFHDPETNIYVIDDYAHTPDEIRNLLQTAKEVFENEKIVVIFQPHRYSRLEREDGNFAKALQLADEVVVTEVYDAFEEKKNGISGKMIWDSLKSLGKEAYFVEKLPELEKVISVSENTVFLFVGAGDIIYSSRRFVERYQSSKSSPSRVLGSNK | soluble
13 | MGSDKIHHHHHHMKIKKGDTEAEILTKGAYLYSFKIGNRDMILRGDLERPTRGGMAILIPFANRVKNAEYVFEGVKYTLPQNREGNAIHGLVMDKEFNVIGKSEDSISLQYILEHEGYPSKLDCVITYKVFKYGLRIKIVVRNVGNKRAPLTVGAHPYFITADDWRIVVEKEESIKKCISFNKIPTGELVKTKLEHTDYDDCFLISGGIQLHSSYSKVRITRRNMPFVQIYTGVRGSIAIEPMSGAPDAYHNGLGLKILEPNESSYFAFAFRFH | not soluble

— the DeepSol protein solubility set
